Results on three molecules are retold here after patent US8450464 (Bristol-Myers Squibb, dated 2013).

Assay [1] has as its target T1, human CXCR4 (human, UniProt P61073 1-352). The assay can be described thus: competition flow cytometry on CEM cells: unlabeled antibody titrated against a constant concentration of FITC-labeled F9, fluorescent geometric mean; unit from the axis 'Ab Concentration in nM'.
For assay [2], the target named is T1, human CXCR4. As to the kind of experiment: cell-based or functional assay.
Assay [3] has as its target T1, human CXCR4. The assay can be described thus: flow cytometry on CEM cells, FITC anti-human IgG detection. As to the method: (§1) The antibodies were then mixed with CEM cells and allowed to bind before being detected with a FITC-conjugated anti-human IgG secondary antibody. The cells were then analyzed by fluorescent cytometry.
Assay [4] deals with T1, human CXCR4. As to the kind of experiment: radioligand competition on CEM cells; competitor 100 pM 125I-SDF-1. As for the experimental part: The anti-CXCR4 antibodies were serially diluted 1:3 to yield a range of concentrations from 300 nM to 137 pM. […] An irrelevant antibody of the same isotype was used as a negative control.
The target of assay [5] is T1, human CXCR4. The assay can be described thus: flow cytometry titration on CEM cells (native human CXCR4), FITC anti-human IgG secondary, MFI; unit from the axis 'Conc in nM'. As for the experimental part: as §1
For orientation: In flow cytometry, cells or beads pass a laser one at a time.

Assay [6] deals with T1, human CXCR4. As to the kind of experiment: flow cytometry titration on CEM cells (native human CXCR4), FITC anti-human IgG secondary, MFI; unit from the axis 'Conc in nM'; the curve is still rising at the highest concentration, no upper plateau. As for the experimental part: as §1
The target of assay [7] is T1, human CXCR4. The assay can be described thus: competition flow cytometry on CEM cells: unlabeled antibody titrated against a constant concentration of FITC-labeled F9, fluorescent geometric mean; unit from the axis 'Ab Concentration in nM'; the fitted value lies above the highest concentration shown (about 300 nM), inhibition is only partial. As to the method:
To determine the ability of a panel of anti-CXCR4 antibodies to compete for binding to CXCR4, competition studies were performed. […] The mixture of antibodies was then added to CEM cells and allowed to bind.

Changes are numbered by the printed parent chain.

By EC50 is commonly meant the midpoint of the concentration-response curve. Low readings indicate greater potency, high ones weaker potency.

T1 sequence (P61073 whole entry): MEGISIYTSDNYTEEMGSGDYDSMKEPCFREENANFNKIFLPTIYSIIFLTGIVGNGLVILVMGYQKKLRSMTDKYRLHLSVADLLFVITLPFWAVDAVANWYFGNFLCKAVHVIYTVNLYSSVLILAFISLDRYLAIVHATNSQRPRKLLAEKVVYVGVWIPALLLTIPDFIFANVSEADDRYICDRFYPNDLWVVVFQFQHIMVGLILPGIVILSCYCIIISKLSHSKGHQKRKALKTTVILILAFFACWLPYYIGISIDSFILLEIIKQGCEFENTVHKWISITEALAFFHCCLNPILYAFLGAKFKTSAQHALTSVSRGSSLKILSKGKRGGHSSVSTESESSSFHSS

In the assay with human CXCR4 [1], “murine monoclonal anti-CXCR4 antibody 12G5” registered a half-maximal effective concentration (EC50) of 102 nM.

B1: anti-CXCR4 human monoclonal antibody D1 (antibody, V domains shown)
VH: EVQLVQSGGGLVQPGGSLRLSCAAAGFTFSSYSMNWVRQAPGKGLEWVSYISSRSKTIYYADSVKGRFTISRDNARNSLYLQMNSLRDEDTAVYYCARDYGGQPPYYYYYGMDVWGQGTTVTVSS
VL: VIWVTQSPSSLSASVGDRVTITCRTSQGISSWLAWYQQKPEKAPELLIYAASSLQSGVPSRFSGSGSGTDFTLTISSLQPEDFATYYCQQYNSYPRTFGQGTKVEIK
notes: Tested as full-length antibody
With B1, in the assay with human CXCR4 [2], the “EC50 for inhibition of SDF-1-induced calcium flux in CEM cells” value stood at 0.57 nM. Further, the 50% effective concentration (EC50) is 80 nM in the assay with human CXCR4 [3], 28.6 nM with human CXCR4 [4], 79.9 nM with human CXCR4 [5] and 59.2 nM with human CXCR4 [1].

B2: anti-CXCR4 human monoclonal antibody E2 (antibody, V domains shown)
VH: B1 VH with K56R, R76K, Y107H
VL: B1 VL with V1E, W3V, V4L, T25A, S31N, E45K, L46S
notes: as for B1
With B2, the EC50 in the assay with human CXCR4 [3] was 290 nM; with human CXCR4 [6], 290 nM; with human CXCR4 [7] it was 469 nM.
